Laboratory results published in the supplement of paper PMC5998384.

How the values were obtained:
HeLa Kyoto [1] = test: solubility in G1/S (NP-40 vs SDS abundance) (log2 ratio); higher = more soluble; details: cell cycle stage: G1/S
HeLa Kyoto [2] = test: solubility change mitosis vs G1/S (difference of NP-40 vs SDS log2 ratios) (log2 ratio difference); higher = more soluble in mitosis
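For solubility change mitosis vs G1/S (difference of NP-40 vs SDS log2 ratios) in this document: synchronized HeLa Kyoto cells (double thymidine block for G1/S, nocodazole release for mitosis), protein amounts in NP-40 versus SDS lysates quantified by mass spectrometry, three biological replicates.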
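For solubility in G1/S (NP-40 vs SDS abundance) in this document: HeLa Kyoto cells arrested at G1/S by double thymidine block, proteins quantified by TMT10plex mass spectrometry in mild NP-40 versus SDS extracts, three biological replicates.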

MBD4, sequence (chain, as listed by the source): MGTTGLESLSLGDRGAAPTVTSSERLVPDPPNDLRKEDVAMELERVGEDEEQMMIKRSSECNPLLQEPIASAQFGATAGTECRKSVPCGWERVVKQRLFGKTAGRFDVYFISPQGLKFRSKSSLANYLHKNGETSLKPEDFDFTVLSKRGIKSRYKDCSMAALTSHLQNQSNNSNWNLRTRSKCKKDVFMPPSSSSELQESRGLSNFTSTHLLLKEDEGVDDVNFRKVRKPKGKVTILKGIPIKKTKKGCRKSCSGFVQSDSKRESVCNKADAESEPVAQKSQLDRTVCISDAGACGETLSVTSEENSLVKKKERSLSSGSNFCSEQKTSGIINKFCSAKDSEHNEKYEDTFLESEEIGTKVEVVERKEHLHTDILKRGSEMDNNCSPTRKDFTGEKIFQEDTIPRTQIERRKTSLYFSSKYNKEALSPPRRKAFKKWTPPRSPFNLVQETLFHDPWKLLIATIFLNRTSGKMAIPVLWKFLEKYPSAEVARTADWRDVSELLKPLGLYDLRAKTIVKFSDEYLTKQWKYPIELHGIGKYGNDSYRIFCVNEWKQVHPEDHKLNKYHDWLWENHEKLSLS

## MASVLSYESLVHAVAGAVGSVTAMTVFFPLDTARLRLQVDEKRKSKTTHMVLLEIIKEEGLLAPYRGWFPVISSLCCSNFVYFYTFNSLKALWVKGQHSTTGKDLVVGFVAGVVNVLLTTPLWVVNTRLKLQGAKFRNEDIVPTNYKGIIDAFHQIIRDEGISALWNGTFPSLLLVFNPAIQFMFYEGLKRQLLKKRMKLSSLDVFIIGAVAKAIATTVTYPLQTVQSILRFGRHRLNPENRTLGSLRNILYLLHQRVRRFGIMGLYKGLEAKLLQTVLTAALMFLVYEKLTAATFTVMGLKRAHQH [SLC25A17]
HeLa Kyoto [1]
  solubility in G1/S (log2): -0.148
HeLa Kyoto [2]
  solubility change mitosis (log2): -0.0966

## MASVRIREAKEGDCGDILRLIRELAEFEKLSDQVKISEEALRADGFGDNPFYHCLVAEILPAPGKLLGPCVVGYGIYYFIYSTWKGRTIYLEDIYVMPEYRGQGIGSKIIKKVAEVALDKGCSQFRLAVLDWNQRAMDLYKALGAQDLTEAEGWHFFCFQGEATRKLAGK [SAT2]
HeLa Kyoto [1]
  solubility in G1/S (log2): 0.139
HeLa Kyoto [2]
  solubility change mitosis (log2): -0.259

## MASVSSATFSGHGARSLLQFLRLVGQLKRVPRTGWVYRNVQRPESVSDHMYRMAVMAMVIKDDRLNKDRCVRLALVHDMAECIVGDIAPADNIPKEEKHRREEEAMKQITQLLPEDLRKELYELWEEYETQSSAEAKFVKQLDQCEMILQASEYEDLEHKPGRLQDFYDSTAGKFNHPEIVQLVSELEAERSTNIAAAASEPHS [HDDC2]
HeLa Kyoto [1]
  solubility in G1/S (log2): 0.452
HeLa Kyoto [2]
  solubility change mitosis (log2): 0.118

## MATSLDFKTYVDQACRAAEEFVNIYYETMDKRRRALTRLYLDKATLIWNGNAVSGLDALNNFFDTLPSSEFQVNMLDCQPVHEQATQSQTTVLVVTSGTVKFDGNKQHFFNQNFLLTAQSTPNNTVWKIASDCFRFQDWSSS [NXT2]
HeLa Kyoto [1]
  solubility in G1/S (log2): -0.596
HeLa Kyoto [2]
  solubility change mitosis (log2): 0.401

## MAVTLSLLLGGRVCAAVTRCGFATRGVAGPGPIGREPDPDSDWEPEERELQEVESTLKRQKQAIRFQKIRRQMEAPGAPPRTLTWEAMEQIRYLHEEFPESWSVPRLAEGFDVSTDVIRRVLKSKFLPTLEQKLKQDQKVLKKAGLAHSLQHLRGSGNTSKLLPAGHSVSGSLLMPGHEASSKDPNHSTALKVIESDTHRTNTPRRRKGRNKEIQDLEESFVPVAAPLGHPRELQKYSSDSESPRGTGSGALPSGQKLEELKAEEPDNFSSKVVQRGREFFDSNGNFLYRI [NGRN]
HeLa Kyoto [1]
  solubility in G1/S (log2): 0.784
HeLa Kyoto [2]
  solubility change mitosis (log2): 0.276

## MBD4
HeLa Kyoto [1]
  solubility in G1/S (log2): -0.669
HeLa Kyoto [2]
  solubility change mitosis (log2): 0.427

## MCTKMEQPFYHDDSYTATGYGRAPGGLSLHDYKLLKPSLAVNLADPYRSLKAPGARGPGPEGGGGGSYFSGQGSDTGASLKLASSELERLIVPNSNGVITTTPTPPGQYFYPRGGGSGGGAGGAGGGVTEEQEGFADGFVKALDDLHKMNHVTPPNVSLGATGGPPAGPGGVYAGPEPPPVYTNLSSYSPASASSGGAGAAVGTGSSYPTTTISYLPHAPPFAGGHPAQLGLGRGASTFKEEPQTVPEARSRDATPPVSPINMEDQERIKVERKRLRNRLAATKCRKRKLERIARLEDKVKTLKAENAGLSSTAGLLREQVAQLKQKVMTHVSNGCQLLLGVKGHAF [JUNB]
HeLa Kyoto [1]
  solubility in G1/S (log2): 0.0721
HeLa Kyoto [2]
  solubility change mitosis (log2): 0.346

## MDEADRRLLRRCRLRLVEELQVDQLWDALLSRELFRPHMIEDIQRAGSGSRRDQARQLIIDLETRGSQALPLFISCLEDTGQDMLASFLRTNRQAAKLSKPTLENLTPVVLRPEIRKPEVLRPETPRPVDIGSGGFGDVGALESLRGNADLAYILSMEPCGHCLIINNVNFCRESGLRTRTGSNIDCEKLRRRFSSLHFMVEVKGDLTAKKMVLALLELAQQDHGALDCCVVVILSHGCQASHLQFPGAVYGTDGCPVSVEKIVNIFNGTSCPSLGGKPKLFFIQACGGEQKDHGFEVASTSPEDESPGSNPEPDATPFQEGLRTFDQLDAISSLPTPSDIFVSYSTFPGFVSWRDPKSGSWYVETLDDIFEQWAHSEDLQSLLLRVANAVSVKGIYKQMPGCFNFLRKKLFFKTS [CASP9]
HeLa Kyoto [1]
  solubility in G1/S (log2): 0.32
HeLa Kyoto [2]
  solubility change mitosis (log2): -0.0656

## MDEDGGGEGGGVPEDLSLEEREELLDIRRRKKELIDDIERLKYEIAEVMTEIDNLTSVEESKTTQRNKQIAMGRKKFNMDPKKGIQFLIENDLLQSSPEDVAQFLYKGEGLNKTVIGDYLGERDEFNIKVLQAFVELHEFADLNLVQALRQFLWSFRLPGEAQKIDRMMEAFASRYCLCNPGVFQSTDTCYVLSFAIIMLNTSLHNHNVRDKPTAERFIAMNRGINEGGDLPEELLRNLYESIKNEPFKIPEDDGNDLTHTFFNPDREGWLLKLGGGRVKTWKRRWFILTDNCLYYFEYTTDKEPRGIIPLENLSIREVEDPRKPNCFELYNPSHKGQVIKACKTEADGRVVEGNHVVYRISAPSPEEKEEWMKSIKASISRDPFYDMLATRKRRIANKK [CYTH3]
HeLa Kyoto [1]
  solubility in G1/S (log2): 0.26
HeLa Kyoto [2]
  solubility change mitosis (log2): -0.11

## MDEQEALNSIMNDLVALQMNRRHRMPGYETMKNKDTGHSNRQSDVRIKFEHNGERRIIAFSRPVKYEDVEHKVTTVFGQPLDLHYMNNELSILLKNQDDLDKAIDILDRSSSMKSLRILLLSQDRNHNSSSPHSGVSRQVRIKASQSAGDINTIYQPPEPRSRHLSVSSQNPGRSSPPPGYVPERQQHIARQGSYTSINSEGEFIPETSEQCMLDPLSSAENSLSGSCQSLDRSADSPSFRKSRMSRAQSFPDNRQEYSDRETQLYDKGVKGGTYPRRYHVSVHHKDYSDGRRTFPRIRRHQGNLFTLVPSSRSLSTNGENMGLAVQYLDPRGRLRSADSENALSVQERNVPTKSPSAPINWRRGKLLGQGAFGRVYLCYDVDTGRELASKQVQFDPDSPETSKEVSALECEIQLLKNLQHERIVQYYGCLRDRAEKTLTIFMEYMPGGSVKDQLKAYGALTESVTRKYTRQILEGMSYLHSNMIVHRDIKGANILRDSAGNVKLGDFGASKRLQTICMSGTGMRSVTGTPYWMSPEVISGEGYGRKADVWSLGCTVVEMLTEKPPWAEYEAMAAIFKIATQPTNPQLPSHISEHGRDFLRRIFVEARQRPSAEELLTHHFAQLMY [MAP3K3]
HeLa Kyoto [1]
  solubility in G1/S (log2): 0.569
HeLa Kyoto [2]
  solubility change mitosis (log2): -0.169

## MDFREILMIASKGQGVNNVPKRYSLAVGPPKKDPKVKGVQSAAVQAFLKRKEEELRRKALEEKRRKEELVKKRIELKHDKKARAMAKRTKDNFHGYNGIPIEEKSKKRQATESHTSQGTDREYEMEEENEFLEYNHAESEQEYEEEQEPPKVESKPKVPLKSAPPPMNFTDLLRLAEKKQFEPVEIKVVKKSEERPMTAEELREREFLERKHRRKKLETDGKLPPTVSKKAPSQKESVGTKLSKGSGDRHPSSKGMPLPHAEKKSRPSMANEKHLALSSSKSMPGERIKAGSGNSSQPSLREGHDKPVFNGAGKPHSSTSSPSVPKTSASRTQKSAVEHKAKKSLSHPSHSRPGPMVTPHNKAKSPGVRQPGSSSSSAPGQPSTGVARPTVSSGPVPRRQNGSSSSGPERSISGSKKPTNDSNPSRRTVSGTCGPGQPASSSGGPGRPISGSVSSARPLGSSRGPGRPVSSPHELRRPVSGLGPPGRSVSGPGRSISGSIPAGRTVSNSVPGRPVSSLGPGQTVSSSGPTIKPKCTVVSETISSKNIISRSSNGQMNGMKPPLSGYRAAQGPQRLPFPTGYKRQREYEEEDDDDDEYDSEMEDFIEDEGEPQEEISKHIREIFGYDRKKYKDESDYALRYMESSWKEQQKEEAKSLRLGMQEDLEEMRREEEEMQRRRAKKLKRR [SPTY2D1]
HeLa Kyoto [1]
  solubility in G1/S (log2): -1.47
HeLa Kyoto [2]
  solubility change mitosis (log2): 0.873

## MDFSFSFMQGIMGNTIQQPPQLIDSANIRQEDAFDNNSDIAEDGGQTPYEATLQQGFQYPATTEDLPPLTNGYPSSISVYETQTKYQSYNQYPNGSANGFGAVRNFSPTDYYHSEIPNTRPHEILEKPSPPQPPPPPSVPQTVIPKKTGSPEIKLKITKTIQNGRELFESSLCGDLLNEVQASEHTKSKHESRKEKRKKSNKHDSSRSEERKSHKIPKLEPEEQNRPNERVDTVSEKPREEPVLKEEAPVQPILSSVPTTEVSTGVKFQVGDLVWSKVGTYPWWPCMVSSDPQLEVHTKINTRGAREYHVQFFSNQPERAWVHEKRVREYKGHKQYEELLAEATKQASNHSEKQKIRKPRPQRERAQWDIGIAHAEKALKMTREERIEQYTFIYIDKQPEEALSQAKKSVASKTEVKKTRRPRSVLNTQPEQTNAGEVASSLSSTEIRRHSQRRHTSAEEEEPPPVKIAWKTAAARKSLPASITMHKGSLDLQKCNMSPVVKIEQVFALQNATGDGKFIDQFVYSTKGIGNKTEISVRGQDRLIISTPNQRNEKPTQSVSSPEATSGSTGSVEKKQQRRSIRTRSESEKSTEVVPKKKIKKEQVETVPQATVKTGLQKGASEISDSCKPLKKRSRASTDVEMTSSAYRDTSDSDSRGLSDLQVGFGKQVDSPSATADADVSDVQSMDSSLSRRGTGMSKKDTVCQICESSGDSLIPCEGECCKHFHLECLGLASLPDSKFICMECKTGQHPCFSCKVSGKDVKRCSVGACGKFYHEACVRKFPTAIFESKGFRCPQHCCSACSMEKDIHKASKGRMMRCLRCPVAYHSGDACIAAGSMLVSSYILICSNHSKRSSNSSAVNVGFCFVCARGLIVQDHSDPMFSSYAYKSHYLLNESNRAELMKLPMIPSSSASKKKCEKGGRLLCCESCPASFHPECLSIEMPEGCWNCNDCKAGKKLHYKQIVWVKLGNYRWWPAEICNPRSVPLNIQGLKHDLGDFPVFFFGSHDYYWVHQGRVFPYVEGDKSFAEGQTSINKTFKKALEEAAKRFQELKAQRESKEALEIEKNSRKPPPYKHIKANKVIGKVQIQVADLSEIPRCNCKPADENPCGLESECLNRMLQYECHPQVCPAGDRCQNQCFTKRLYPDAEIIKTERRGWGLRTKRSIKKGEFVNEYVGELIDEEECRLRIKRAHENSVTNFYMLTVTKDRIIDAGPKGNYSRFMNHSCNPNCETQKWTVNGDVRVGLFALCDIPAGMELTFNYNLDCLGNGRTECHCGADNCSGFLGVRPKSACASTNEEKAKNAKLKQKRRKIKTEPKQMHEDYCFQCGDGGELVMCDKKDCPKAYHLLCLNLTQPPYGKWECPWHQCDECSSAAVSFCEFCPHSFCKDHEKGALVPSALEGRLCCSEHDPMAPVSPEYWSKIKCKWESQDHGEEVKE [WHSC1L1]
HeLa Kyoto [1]
  solubility in G1/S (log2): -0.563
HeLa Kyoto [2]
  solubility change mitosis (log2): 0.362

## MDIIETAKLEEHLENQPSDPTNTYARPAEPVEEENKNGNGKPKSLSSGLRKGTKKYPDYIQIAMPTESRNKFPLEWWKTGIAFIYAVFNLVLTTVMITVVHERVPPKELSPPLPDKFFDYIDRVKWAFSVSEINGIILVGLWITQWLFLRYKSIVGRRFCFIIGTLYLYRCITMYVTTLPVPGMHFQCAPKLNGDSQAKVQRILRLISGGGLSITGSHILCGDFLFSGHTVTLTLTYLFIKEYSPRHFWWYHLICWLLSAAGIICILVAHEHYTIDVIIAYYITTRLFWWYHSMANEKNLKVSSQTNFLSRAWWFPIFYFFEKNVQGSIPCCFSWPLSWPPGCFKSSCKKYSRVQKIGEDNEKST [SGMS2]
HeLa Kyoto [1]
  solubility in G1/S (log2): -0.197
HeLa Kyoto [2]
  solubility change mitosis (log2): -0.0915

## MDKNIGEQLNKAYEAFRQACMDRDSAVKELQQKTENYEQRIREQQEQLSLQQTIIDKLKSQLLLVNSTQDNNYGCVPLLEDSETRKNNLTLDQPQDKVISGIAREKLPKVRRQEVSSPRKETSARSLGSPLLHERGNIEKTFWDLKEEFHKICMLAKAQKDHLSKLNIPDTATETQCSVPIQCTDKTDKQEALFKPQAKDDINRGAPSITSVTPRGLCRDEEDTSFESLSKFNVKFPPMDNDSTFLHSTPERPGILSPATSEAVCQEKFNMEFRDNPGNFVKTEETLFEIQGIDPIASAIQNLKTTDKTKPSNLVNTCIRTTLDRAACLPPGDHNALYVNSFPLLDPSDAPFPSLDSPGKAIRGPQQPIWKPFPNQDSDSVVLSGTDSELHIPRVCEFCQAVFPPSITSRGDFLRHLNSHFNGET [TANK]
HeLa Kyoto [1]
  solubility in G1/S (log2): -0.138
HeLa Kyoto [2]
  solubility change mitosis (log2): -0.0338
